According to patent US7037674B1, “Cytochrome P450 reductases from poppy plants” (priority 1997, dated 2006):
Like-named read-outs stand apart in the source and are kept apart here.

Tested on: cytochrome P-450 reductase from P. somniferum cell suspension cultures
Settings: for Km: read-out: Km value, purified P. somniferum reductase (mixture of two isozymes)
Description: Purification and sequence analysis. Cells were harvested from seven-day-old suspension cultures of P. somniferum by vacuum filtration, immediately shock frozen and stored at −20° C. All of the following operations were carried out at 4° C. 500 g frozen tissue were then homogenised with a mortar and pestle in 1 liter 0.1 M tricine/NaOH, pH 7.5 containing 15 mM thioglycolic acid. Cell debris was removed by centrifugation at 10,000× g, 30 min. The supernatant was filtered through four layers of cheesecloth and the microsomes were then isolated by MgCl2 precipitation according to (19). […] Microsomal protein was solubilized as follows. 2 mg CHAPS (3[(3-cholamidopropyl)dimethyl-ammonio]-1-propane-sulfonate, Roth) per mg microsomal protein was prepared in 1 mL of 0.1 M tricine/NaOH, pH 7.5 containing 15 mM thioglycolic acid. This solution was added dropwise to the microsomal suspension. 2% (v/v) Emulgen 911 (Kao Corporation) was then added and the solution slowly stirred for 1 h. Membrane fragments were removed by centrifugation at 105,000× g for 60 min. The total activity in the solubilized microsomes was assigned the value 100%. The solubilized cytochrome P-450 reductase was then purified to electrophoretic homogeneity according to (20).
Yeast microsomes were isolated according to either (22) or (23) and the presence cytochrome P-450 reductase was measured as the ability to reduce cytochrome c (24).

| Compound | Km | optimal molarity range of the Tricine buffer | activity declined to (at 100 mM Tricine) | activity declined to (at 1 M Tricine) | pH optimum (in 0.5 M Tricine buffer) |
| --- | --- | --- | --- | --- | --- |
| NC(=O)C1=CN([C@@H]2O[C@H](COP(=O)(O)OP(=O)(O)OC[C@H]3O[C@@H](n4cnc5c(N)ncnc54)[C@H](OP(=O)(O)O)[C@@H]3O)[C@@H](O)[C@H]2O)C=CC1 [NADPH, reference compound] | 4.2 µM | – | – | – | – |
| cytochrome c [reference compound] | 8.3 µM | – | – | – | – |
| purified reductase: cytochrome P-450 reductase purified from P. somniferum cell suspension cultures | – | 250 to 500 mM | 21% | 77% | 8.0 |
